Reference: the supplement of paper PMC9876800

Test system: peptide library, one residue held at a place counted from the S/T acceptor
Experiment: relative phosphorylation of the sub-library (ratio to the mean residue at this position); higher = residue favoured
Details: human
Outline: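 Human or orthologue kinase constructs, purified and recombinant, were incubated under kinase-specific conditions in 384-well plates with biotinylated degenerate peptide sub-libraries. Each sub-library fixed one residue at one position around a central Ser/Thr. Incubations lasted 90 min with peptides at 50 μM and 50 μM ATP spiked with γ-32P-ATP, after which spots on streptavidin membranes were phosphorimaged and quantified by densitometry. Relative sub-library phosphorylation is a ratio to the mean residue at that position.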

STK11, construct: Full length, sequence (Q15831 whole entry, looked up): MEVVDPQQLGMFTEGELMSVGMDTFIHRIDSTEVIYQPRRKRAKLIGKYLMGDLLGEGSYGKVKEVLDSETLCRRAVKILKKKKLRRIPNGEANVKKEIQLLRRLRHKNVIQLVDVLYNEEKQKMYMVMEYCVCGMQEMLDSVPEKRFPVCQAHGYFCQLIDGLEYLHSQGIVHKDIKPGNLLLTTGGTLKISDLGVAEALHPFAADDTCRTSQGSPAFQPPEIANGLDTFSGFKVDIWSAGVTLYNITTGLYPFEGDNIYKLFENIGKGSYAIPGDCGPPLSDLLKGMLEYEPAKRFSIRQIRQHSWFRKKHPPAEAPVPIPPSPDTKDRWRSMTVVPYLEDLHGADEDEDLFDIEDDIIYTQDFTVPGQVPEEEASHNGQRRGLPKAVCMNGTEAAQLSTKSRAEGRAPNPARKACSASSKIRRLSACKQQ
STK3, construct: Full length, sequence (Q13188 whole entry, looked up): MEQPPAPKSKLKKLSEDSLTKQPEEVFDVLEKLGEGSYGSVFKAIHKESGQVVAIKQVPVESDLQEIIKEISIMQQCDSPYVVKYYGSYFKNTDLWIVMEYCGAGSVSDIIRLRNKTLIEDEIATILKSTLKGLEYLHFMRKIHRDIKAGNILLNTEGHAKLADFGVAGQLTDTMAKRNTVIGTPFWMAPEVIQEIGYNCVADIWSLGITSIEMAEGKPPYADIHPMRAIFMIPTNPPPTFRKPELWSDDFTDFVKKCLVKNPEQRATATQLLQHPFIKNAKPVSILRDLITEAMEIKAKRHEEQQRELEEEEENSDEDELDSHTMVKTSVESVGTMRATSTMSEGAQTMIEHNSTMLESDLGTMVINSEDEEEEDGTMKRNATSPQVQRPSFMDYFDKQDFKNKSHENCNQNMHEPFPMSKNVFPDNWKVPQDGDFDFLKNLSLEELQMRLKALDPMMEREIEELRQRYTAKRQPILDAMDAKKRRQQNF
RPS6KA2, construct: Full length, sequence (Q15349 whole entry, looked up): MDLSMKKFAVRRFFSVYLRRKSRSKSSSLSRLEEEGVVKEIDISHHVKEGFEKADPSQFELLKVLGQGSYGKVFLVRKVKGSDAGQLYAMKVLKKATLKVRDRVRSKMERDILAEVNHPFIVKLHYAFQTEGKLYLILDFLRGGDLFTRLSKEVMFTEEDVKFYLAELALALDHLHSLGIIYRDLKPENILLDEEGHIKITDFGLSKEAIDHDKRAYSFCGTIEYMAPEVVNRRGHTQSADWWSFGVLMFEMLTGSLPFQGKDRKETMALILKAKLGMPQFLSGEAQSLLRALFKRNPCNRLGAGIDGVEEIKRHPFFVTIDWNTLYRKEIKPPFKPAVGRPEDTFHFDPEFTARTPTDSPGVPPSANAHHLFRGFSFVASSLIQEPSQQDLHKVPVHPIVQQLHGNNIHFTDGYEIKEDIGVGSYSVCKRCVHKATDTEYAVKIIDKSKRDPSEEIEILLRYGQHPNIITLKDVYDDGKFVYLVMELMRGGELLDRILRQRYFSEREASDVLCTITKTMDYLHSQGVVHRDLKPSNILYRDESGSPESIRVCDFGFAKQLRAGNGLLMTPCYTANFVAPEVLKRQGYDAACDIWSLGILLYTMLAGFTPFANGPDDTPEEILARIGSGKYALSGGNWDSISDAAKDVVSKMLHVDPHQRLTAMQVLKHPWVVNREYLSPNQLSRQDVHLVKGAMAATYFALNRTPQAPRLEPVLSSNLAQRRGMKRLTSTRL

RPS6KA2, construct: Full length (from UniProt Q15349)
relative phosphorylation
Details | at +1 | at +2 | at +3 | at +4 | at -1 | at -2 | at -3 | at -4 | at -5
A fixed | 0.795 | 1.22 | 1.14 | 1.18 | 0.925 | 0.766 | 0.741 | 1.41 | 1.13
D fixed | 0.457 | 0.669 | 0.976 | 0.77 | 0.569 | 0.763 | 0.455 | 0.572 | 0.435
E fixed | 0.806 | 0.601 | 0.792 | 0.661 | 0.505 | 0.589 | 0.562 | 0.639 | 0.417
F fixed | 1.32 | 0.708 | 0.99 | 0.844 | 0.752 | 0.54 | 0.373 | 0.851 | 0.915
G fixed | 0.658 | 1.24 | 1.21 | 1.22 | 1.21 | 0.914 | 0.583 | 1.12 | 1.1
H fixed | 1.31 | 1.66 | 1.19 | 1.32 | 1.18 | 1.26 | 0.672 | 1.1 | 1.11
I fixed | 1.22 | 0.994 | 0.855 | 0.88 | 0.384 | 0.502 | 0.308 | 0.657 | 0.72
K fixed | 0.972 | 1.04 | 1.03 | 1.22 | 1.5 | 2.21 | 1.47 | 1.58 | 2
L fixed | 0.925 | 0.616 | 1.04 | 0.839 | 0.916 | 1.05 | 0.311 | 0.801 | 0.862
M fixed | 1.09 | 0.742 | 0.912 | 0.887 | 1.12 | 0.761 | 0.449 | 0.916 | 0.715
N fixed | 0.769 | 0.781 | 0.706 | 0.68 | 1.16 | 0.697 | 0.434 | 0.743 | 0.755
P fixed | 0.338 | 0.794 | 1.04 | 1.27 | 1.58 | 0.467 | 0.632 | 0.984 | 0.865
Q fixed | 0.925 | 0.566 | 0.717 | 0.916 | 0.861 | 0.879 | 0.603 | 0.956 | 0.702
R fixed | 0.998 | 1.82 | 1.09 | 0.886 | 1.6 | 4.34 | 8.11 | 2.03 | 3.49
V fixed | 1.75 | 1.11 | 0.92 | 0.819 | 0.683 | 0.35 | 0.365 | 0.786 | 0.713
W fixed | 1.05 | 0.973 | 1.17 | 1.44 | 0.793 | 0.409 | 0.443 | 0.954 | 0.171
Y fixed | 1.61 | 1.47 | 1.23 | 1.16 | 1.26 | 0.503 | 0.49 | 0.894 | 0.903
pThr fixed | 1 | 0.781 | 1.22 | 1.03 | 0.307 | 0.308 | 0.269 | 0.637 | 0.391
pTyr fixed | 1.55 | 1.05 | 1.25 | 0.999 | 0.657 | 0.368 | 0.555 | 0.636 | 0.526

SRPK2, construct: Full length (from UniProt P78362)
relative phosphorylation
Details | at +1 | at +2 | at +3 | at +4 | at -1 | at -2 | at -3 | at -4 | at -5
A fixed | 0.712 | 1.14 | 0.669 | 0.878 | 0.911 | 1.6 | 0.473 | 0.89 | 1.01
D fixed | 0.338 | 1.38 | 0.556 | 0.992 | 0.577 | 2.3 | 0.364 | 0.723 | 0.669
E fixed | 0.495 | 1.2 | 0.406 | 0.747 | 0.626 | 1.46 | 0.305 | 0.685 | 0.713
F fixed | 0.35 | 1.12 | 0.427 | 0.715 | 0.468 | 0.64 | 0.265 | 0.697 | 0.971
G fixed | 0.597 | 0.77 | 0.921 | 1.16 | 0.901 | 1.11 | 0.363 | 0.818 | 1.12
H fixed | 0.663 | 1.01 | 0.699 | 1.11 | 1.6 | 1.56 | 0.44 | 1.11 | 1.15
I fixed | 0.667 | 0.647 | 0.369 | 0.783 | 0.361 | 0.298 | 0.222 | 0.549 | 0.593
K fixed | 1.6 | 2.02 | 1.29 | 1.51 | 2.2 | 0.995 | 0.918 | 1.71 | 1.75
L fixed | 0.852 | 0.772 | 0.407 | 0.875 | 0.671 | 0.361 | 0.232 | 0.644 | 0.648
M fixed | 0.839 | 0.547 | 0.383 | 0.794 | 0.693 | 0.538 | 0.288 | 0.719 | 0.754
N fixed | 1.11 | 0.934 | 0.666 | 1.02 | 1.09 | 1.22 | 0.354 | 0.988 | 0.999
P fixed | 4.58 | 1.22 | 1.72 | 1.06 | 1.44 | 0.822 | 0.347 | 1.84 | 0.758
Q fixed | 1.08 | 0.939 | 0.687 | 1.07 | 1.66 | 0.714 | 0.528 | 0.956 | 0.834
R fixed | 1.23 | 1.13 | 6.39 | 1.59 | 1.92 | 1.63 | 11 | 2.28 | 2.36
V fixed | 1.07 | 0.976 | 0.442 | 0.815 | 0.726 | 0.449 | 0.246 | 0.696 | 0.769
W fixed | 0.407 | 0.581 | 0.502 | 1.03 | 0.522 | 0.614 | 0.351 | 0.898 | 1.07
Y fixed | 0.412 | 0.618 | 0.474 | 0.863 | 0.629 | 0.695 | 0.319 | 0.794 | 0.829
pThr fixed | 0.513 | 0.839 | 0.67 | 0.956 | 0.411 | 0.555 | 0.363 | 0.65 | 0.55
pTyr fixed | 0.696 | 0.733 | 0.646 | 0.951 | 0.763 | 1.09 | 0.45 | 1.25 | 0.809

STK3, construct: Full length (from UniProt Q13188)
relative phosphorylation
Details | at +1 | at +2 | at +3 | at +4 | at -1 | at -2 | at -3 | at -4 | at -5
A fixed | 0.661 | 0.581 | 0.858 | 1.04 | 0.779 | 0.875 | 0.933 | 0.913 | 1.03
D fixed | 0.346 | 0.503 | 0.732 | 0.903 | 2.13 | 1.3 | 1.5 | 1.32 | 1.46
E fixed | 0.48 | 0.55 | 0.651 | 0.554 | 1.02 | 1.19 | 1.39 | 1.42 | 1.2
F fixed | 0.902 | 0.508 | 0.855 | 0.762 | 0.651 | 1.64 | 0.919 | 1.07 | 0.976
G fixed | 0.728 | 0.737 | 1.14 | 1.45 | 1.3 | 0.916 | 1.15 | 1.01 | 0.989
H fixed | 0.58 | 1.48 | 1.11 | 1.13 | 1.13 | 1.18 | 0.957 | 1.07 | 1.15
I fixed | 1.92 | 0.532 | 0.872 | 0.747 | 0.346 | 0.457 | 0.461 | 0.501 | 0.601
K fixed | 0.419 | 2.81 | 1.41 | 1.26 | 1.17 | 0.444 | 0.517 | 0.821 | 0.784
L fixed | 2.37 | 0.687 | 1.05 | 0.951 | 0.917 | 0.511 | 0.601 | 0.598 | 0.821
M fixed | 2.76 | 0.687 | 0.886 | 1.02 | 0.823 | 0.877 | 0.727 | 0.789 | 0.817
N fixed | 0.589 | 1.64 | 1.12 | 1.09 | 1.74 | 1.32 | 1.21 | 1.17 | 1.1
P fixed | 0.26 | 0.733 | 1.1 | 1.18 | 0.706 | 0.555 | 1.08 | 0.926 | 1.23
Q fixed | 0.761 | 1.28 | 1.06 | 1.24 | 1.26 | 0.953 | 1.15 | 1.32 | 1.06
R fixed | 0.479 | 2.35 | 1.45 | 0.852 | 0.783 | 0.472 | 0.602 | 0.881 | 0.704
V fixed | 1.09 | 0.747 | 0.827 | 0.871 | 0.511 | 0.514 | 0.64 | 0.809 | 0.89
W fixed | 1.87 | 0.549 | 0.925 | 1.11 | 0.819 | 1.63 | 1.78 | 1.12 | 1.15
Y fixed | 0.792 | 0.626 | 0.953 | 0.841 | 0.909 | 2.17 | 1.4 | 1.26 | 1.03
pThr fixed | 1.04 | 1.05 | 0.9 | 0.916 | 0.849 | 1.04 | 1.18 | 1.08 | 1.06
pTyr fixed | 0.632 | 0.544 | 0.771 | 0.75 | 0.599 | 1.56 | 1.26 | 1.2 | 1.24

STK11, construct: Full length (from UniProt Q15831)
relative phosphorylation
Details | at +1 | at +2 | at +3 | at +4 | at -1 | at -2 | at -3 | at -4 | at -5
A fixed | 1.07 | 1.17 | 0.932 | 1.03 | 1.34 | 0.926 | 0.956 | 0.936 | 1.22
D fixed | 0.613 | 0.987 | 0.787 | 0.832 | 0.726 | 0.407 | 0.289 | 0.773 | 0.827
E fixed | 0.417 | 0.598 | 0.688 | 0.75 | 0.874 | 0.338 | 0.312 | 0.738 | 0.641
F fixed | 0.801 | 0.907 | 0.891 | 0.898 | 0.582 | 0.932 | 1.81 | 1.5 | 0.939
G fixed | 1.26 | 1.12 | 1.62 | 1.31 | 0.854 | 0.82 | 1.99 | 1.06 | 1.28
H fixed | 1.27 | 1.22 | 1.36 | 1.13 | 1.22 | 0.924 | 1.17 | 1.13 | 1.07
I fixed | 0.653 | 0.711 | 0.579 | 0.741 | 0.349 | 1.81 | 0.441 | 0.485 | 0.492
K fixed | 0.647 | 0.595 | 0.892 | 1.11 | 1.59 | 0.867 | 0.95 | 0.857 | 1.49
L fixed | 0.974 | 0.701 | 0.766 | 0.952 | 0.777 | 2.39 | 1.14 | 0.627 | 0.566
M fixed | 1.16 | 0.714 | 0.699 | 0.813 | 1.3 | 1.12 | 1.48 | 0.685 | 0.775
N fixed | 1.53 | 1.07 | 1.21 | 1.08 | 1.22 | 1.06 | 0.721 | 0.859 | 1.19
P fixed | 0.597 | 1.86 | 1.55 | 1.71 | 0.472 | 0.709 | 1.16 | 1.27 | 1.86
Q fixed | 1.57 | 0.922 | 1.14 | 1.17 | 1.62 | 0.836 | 0.728 | 0.799 | 0.901
R fixed | 1.34 | 0.692 | 1.02 | 0.953 | 1.84 | 1.19 | 0.765 | 0.828 | 1.27
V fixed | 0.654 | 0.882 | 0.7 | 0.724 | 0.495 | 1.06 | 0.385 | 0.498 | 0.532
W fixed | 1.36 | 1.66 | 1.15 | 1 | 0.848 | 0.712 | 1.29 | 2.99 | 1.17
Y fixed | 1.07 | 1.19 | 1.01 | 0.796 | 0.897 | 0.903 | 1.41 | 0.959 | 0.775
pThr fixed | 0.539 | 0.947 | 0.782 | 0.571 | 0.36 | 0.852 | 0.662 | 0.713 | 0.84
pTyr fixed | 0.43 | 0.743 | 0.736 | 0.581 | 0.559 | 0.553 | 0.746 | 0.632 | 0.897
